In the supplement of paper PMC9170038:

System: MS2 coat protein
Assay: apparent KD of MS2 coat protein; higher = weaker reporter binding
Conditions: Eterna round: R107
Method in brief: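 Apparent KD per design is the median of normalised cluster binding-curve fits. Designed RNA switches transcribed on-chip from Illumina sequencing clusters were titrated with SNAP-549-labelled MS2 coat protein in twofold steps from 0.7 or 1.5 nM to 3 µM, with 0.8–1.5 h down to 10–20 min per step. Buffer: 100 mM Tris-HCl pH 7.5, 80 mM KCl, 4 mM MgCl2, without or with constant ligand.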

[1] = input ligand: theophylline 20 uM
[2] = input ligand: tryptophan 2.4 mM
[3] = input ligand: theophylline 2 mM

| Sequence | apparent KD of MS2 coat protein (input ligand: arginine 13.2 mM) [nM] | apparent KD of MS2 coat protein [1] [nM] | apparent KD of MS2 coat protein [2] [nM] | apparent KD of MS2 coat protein [3] [nM] | apparent KD of MS2 coat protein (input ligand: none) [nM] |
| --- | --- | --- | --- | --- | --- |
| CGACACCAGGCAAUCCAUCACCCGGCUGAUACCAGCUCUUUUGGAAGCCCUUGGCAGCAGAGAACAUGAGGAUCACCCAUGUCAG [theeternabot_exclusion_MS2_Theo_A_18] | 14.5 | 16.7 | 17 |  |  |
| CGACGAUACCUGGAUACCAGCGACAUGAGGAUCACCCAUGUAUGUGGAUCAGCCAUGAUAUGCCCUUGGCAGCCACCAAAGUCGG [IIIMULLIN] | 17 | 24.1 | 14.3 |  |  |
| CGAGUAAGUUCAAUCGAAUAACGGUUUUCGCGAGGACCGGUACGGCCGCCACUCGUGUGAUAUCACACAUGAGGAUCACCCAUGU [3'end-1] | 42.7 | 77.1 |  | 135 |  |
| CGAUAGGGUCAAUACCUAAUCAUAUCUGAAGGAGCGUGGAUAUACACAGGUAGGUCGCAGAAUCACAUGAGGAUCACCCAUGUCC [Same State Arginine A GF13] | 60.2 | 127 | 96.5 | 154 | 102 |
| CGCAACCCUAAGGGAUUGUGGUUAUUAGAUACCAGUAUGAUGCAAUACCCUUGGCAGCUAAUACAUGAGGAUCACCCAUGUUGCG [Th A Ex t2] | 13.6 | 20.2 | 16.8 |  |  |
| CGCCACAUGAGGAUCACCCAUGUAAUGGCGCGAGGACCGGUACGGCCGCCACUCGCCUGGCAGUGAGCGCAUGCGGCCUGGGUAU [Exclusion Tryp A GF9] | 12.2 | 13.3 | 13.3 | 14.4 | 10.6 |
| CGGACAUGAGGAUCACCCAUGUACACUGAAGGAGCGUCGAGAACGACAGGUAGGUCGCAGGUUGAGGAUGGUGAUGCUCAGGUAG [Exclusion Arginine A GF 3] | 37.1 | 64.7 | 14.3 | 15.8 | 39.2 |
| CGGACAUGAGGAUCACCCAUGUCGUCGACGCGAGGACCGGUACGGCCGCCACUCGCAUGCCAAUGAGCGCAUGCGGCCUGGGUAU [Exclusion Tryp A GF5] | 15.8 | 29 |  | 21 | 19.5 |
| CGGUUUGUGAUGGAUACCAGCAGAGAAAACGUUUAUCCUAACAUGAGGAUCACCCAUGUAUGCCCUUGGCAGCUGUUGUGGGCUG [8.U] | 34.5 | 60.3 | 43.5 |  |  |
| CGGUUUGUGAUGGAUACCAGCAGAGAAAAUGUUUAUCCUGACAUGAGGAUCACCCAUGUGUGCCCUUGGCAGCUGUUGUGGGCUG [8.X] | 57.3 | 85.7 | 51.1 |  |  |
| CGUAAACAUGAGGAUCACCCAUGUGAUGAUACCAGCACGAUUAACUGCCCUUGGCAGCAUGUAUUGUACGACUUAUUGCCCAUCG [theeternabot_sameState_MS2_Theo_A_15] | 15.4 | 23.3 | 13.5 |  |  |
| CGUGUGCGUUCUGAUACCAGAGACAUGAGGAUCACCCAUGUCCGAUCGUCCUGCCUCAGACUCCCUUGGCAGCAGGUUUUGUGCU [Exclusion Theophylline B GF4] | 29.5 | 56.7 | 50.2 |  |  |
| CUAUUGAUAGCGGCCGCCACUUACUCAUGAGGUAACAACAUGAGGAUCACCCAUGUUUGAGGAUCAAGGACCGGGCUAUUGAUAG [AstrosSSTryB#13] | 30 | 33.9 | 23.8 | 30.9 | 27.6 |
| CUAUUUAUAGCGGCCGCCACUUACUCAUGAGGUAACAACAUGAGGAUCACCCAUGUUUGAGGAUCAAGGACCGGGCUAUGGAUAG [AstrosSSTryB#12] | 24.5 | 37 |  | 31.5 |  |
| CUCCCGUGGUCGGCCGCCACUGGAGGCCUUGCGCGACAUGAGGAUCACCCAUGUGUGCCCGGCGUCAGGACCGGGAUCGCGUGAG [#1 Same State - Tryptophan B Attempt #12 (HarryS)] | 17.2 | 18.7 | 13.8 | 19.7 | 16.1 |
| CUCCGAGGCUAUACUAUACGCCUUUGUGAUACCAGAAUAAAUAUAUUCCCUUGGCAGCAUCACAUGAGGAUCACCCAUGUGCCAU [SSTheo A #12] | 15.7 | 27.7 | 12.4 |  |  |
| CUCGAGUUAUGAGAUACCAGACUAUAGUUUACAUGAGGAUCACCCAUGUUAUGGGUGGUAGUCCCUUGGCAGCUCAUAUGUUUAA [#06 Exclusion-TheophyllineB] | 210 | 274 | 305 |  |  |
